Data reported in patent US20240132599A1 (GAMMADELTA THERAPEUTICS, published 2024).
Where two headings read alike, the source gives them in different places. One block for each binder: values may come before it.

Legend:
[1] = molecular target: T1, human EGFR, recombinant protein (human, UniProt P00533 25-645); assay: method not stated for this control
T1 construct: Bought protein; also called human EGFR antigen

EGFR on HT-29 cells = molecular target: T2, EGFR on HT-29 cells (human, UniProt P00533); assay: flow cytometry on HT-29 cells, 20 min at 4 C, anti-human IgG secondary
T2 construct: full length, cell surface; also called EGFR+ colon cancer cell line HT-29; HT-29 tumour cell
Method: After washing, cells were incubated for a further 20 minutes with anti-human IgG secondary antibodies (Jackson Immunoresearch) and live/dead stain (eFluor 780, Invitrogen) before washing and fixing using CellFix. The amount of antibody bound to each cell type was determined using flow cytometry (MACSQuant Analyser 10, Miltenyi Biotech).

[2] = molecular target: T3, Vδ1 TCR on human Vδ1-positive γδ T cells (human, UniProt A0A1B0GX56 22-115); assay: flow cytometry on skin-derived Vδ1+ cells, 20 min at 4 C, anti-human Fc secondary
T3 construct: also called Vδ1 γδ T-cells; cell surface Vδ1 TCR
Method: Cells were washed and stained with an anti-human Fc secondary antibody (Jackson Immunoresearch) and a viability dye for dead cells (eFlour 780, Invitrogen) for 20 minutes at 4° C. The cells were washed in FACS buffer and resuspended in Cell Fix (BD sciences) before analysis on a MACSQuant Analyser 10 flow cytometer (Miltenyi).

[3] = molecular target: T3, Vδ1 TCR on human Vδ1-positive γδ T cells; assay: flow cytometry on primary Vδ1 γδ T cells, 4 C, anti-human IgG-APC secondary, median fluorescence
Method: (§1) Target cells were stained with varying concentrations of antibody, followed by a fluorescent anti-human IgG detection antibody. All incubation steps were performed at 4° C. and mAb binding was determined using flow cytometry to measure the median level of fluorescence. Logarithmic four parameter dose-response curves were fitted using GraphPad Prism 9.
(§2) Target cells were detached from tissue culture flask, resuspended in PBS and seeded at a final density of 100,000 cells per well in v-bottom 96-well plates. Cells underwent centrifugation and the cell pellets were resuspended in FcR blocking reagent according to the manufacturer's instructions, and incubated for 20 minutes at 4C prior to a further wash. Antibodies were diluted to 500 nM in PBS and serially diluted 1:10 in PBS to 50 μM, and added to the cells, followed by a 20-minute incubation at 4C. To determine the quantity of mAb bound to the cell surface, the cells were then stained with a murine anti-human IgG secondary antibody, conjugated to APC (dilution: 1:100) in addition to a viability dye. Following 20-minute incubation at 4C, the cells were washed twice, and fluorescence measured using the MACSQuant.

EGFR on A431 cells = molecular target: T4, EGFR on A431 cells (human, UniProt P00533 25-1210); assay: flow cytometry on A431 cells, 4 C, anti-human IgG-APC secondary, median fluorescence
T4 construct: whole, on cells; also called EGFR-positive A431; EGFR+A431 target cells
Method: as §1, §2

[4] = molecular target: T5, L1 (DV1-GV4), recombinant soluble human Vδ1/Vγ4 γδ TCR heterodimer (human); assay: SPR
T5 construct: Biotinylated in the DELFIA ranking assay; also called human TRDV1; human Vδ1 antigen

[5] = molecular target: T5, L1 (DV1-GV4), recombinant soluble human …; assay: SPR; remark: listed apart in the source
[6] = molecular target: T1, human EGFR, recombinant protein; assay: SPR (Reichert 4SPR): antibody captured on a Protein A chip, human EGFR flowed at 100 nM
[7] = molecular target: T3, Vδ1 TCR on human Vδ1-positive γδ T cells; assay: flow cytometry binding to γδ T cells, Donor 1 (ATS006); column head printed IC50 (nM), the text calls it EC50 of binding; same value in the table of FIG. 11C
Method: (§3) (FIGS. 11A-11B) The level of binding by the V61 mAbs to two γδ T cell donors, ATS006 (FIG. 11A) and TS164 (FIG. 11B). γδ T cells were stained with varying concentrations of Vδ1 mAbs, followed by a fluorescent anti-human IgG detection antibody (xxx). All incubation steps were performed at 4° C. and mAb binding was determined using flow cytometry to measure the median level of fluorescence. Logarithmic four parameter dose-response curves were fitted using GraphPad Prism 9.
(§4) A range of target cells were assayed to determine the specificity and affinity of Vδ1 mAb binding. This included expanded skin-derived Vδ1 γδ T-cells, HEK293T cells, Raji cells, and multiple leukocyte subsets within human primary blood mononuclear cells. Adherent or semi-adherent cells (skin-derived Vδ1 γδ T-cells, HEK293T) were detached from tissue culture flask and resuspended in PBS. Similarly, non-adherent cell types (Raji, PBMC), were harvested and resuspended in PBS. Cells were seeded at a final density of 100,000 cells per well in v-bottom 96-well plates. Cells underwent centrifugation and the cell pellets were resuspended in FcR blocking reagent according to the manufacturer's instructions, and incubated for 20 minutes at 4C prior to a further wash. […] To determine the quantity of mAb bound to the cell surface, the cells were then stained with a murine anti-human IgG secondary antibody, conjugated to APC (product code . . . , dilution: 1:100). For Vδ1 γδ T-cells, HEK293T and Raji, the cells were also stained solely with a viability dye.

[8] = molecular target: T5, L1 (DV1-GV4), recombinant soluble human …; assay: SPR (Reichert 4SPR), antibody on Protein A chip, human Vδ1 antigen as analyte, 1:1 fit, mean of two replicates (Avg KD)
From the text: The binding affinity of the antibodies to target (i.e. the Vδ1 chain of a γ TCR) is established by SPR analysis using a Reichert 4SPR instrument (Reichert Technologies).
The binding interaction of Vδ1 and the affinity-matured mAbs were modelled according to Langmuir 1:1 binding.

[9] = molecular target: T5, L1 (DV1-GV4), recombinant soluble human …; assay: SPR; remark: listed apart in the source
[10] = molecular target: T3, Vδ1 TCR on human Vδ1-positive γδ T cells; assay: flow cytometry binding to γδ T cells, Donor 2 (TS164); column head printed IC50 (nM), the text calls it EC50 of binding; same value in the table of FIG. 11C
Method: as §3, §4

[11] = molecular target: T6, cyno antigen DV1/GV77, recombinant cynomolgus Vδ1 γδ TCR heterodimer (cynomolgus monkey); assay: SPR
T6 construct: also called cyno TRDV1; Cyno DV1-77; not shown: Delta-chain CDR3/J and constant part, the GV77 gamma chain, and any tags

[12] = molecular target: T6, cyno antigen DV1/GV77, recombinant …; assay: DELFIA ELISA, cyno antigen, heat map; all column labels read ADT1-4-110, clone assigned by the HC/LC CDR3 pair as in FIG. 4A and FIGS. 22-23
[13] = molecular target: T1, human EGFR, recombinant protein; assay: SPR (Reichert 4SPR): antibody captured on a Protein A chip, human EGFR flowed at 100 nM; remark: listed apart in the source
[14] = molecular target: Vδ1 TCR on cynomolgus γδ T cells (cynomolgus monkey); assay: cell-based or functional assay
[15] = molecular target: T1, human EGFR, recombinant protein
[16] = molecular target: T1, human EGFR, recombinant protein; assay: SPR

T3 sequence (A0A1B0GX56 22-115 limits assumed, stated change not applied): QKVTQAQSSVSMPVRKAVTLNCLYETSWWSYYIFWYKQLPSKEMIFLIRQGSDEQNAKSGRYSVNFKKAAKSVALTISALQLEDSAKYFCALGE
T5 sequence (main, as listed by the source): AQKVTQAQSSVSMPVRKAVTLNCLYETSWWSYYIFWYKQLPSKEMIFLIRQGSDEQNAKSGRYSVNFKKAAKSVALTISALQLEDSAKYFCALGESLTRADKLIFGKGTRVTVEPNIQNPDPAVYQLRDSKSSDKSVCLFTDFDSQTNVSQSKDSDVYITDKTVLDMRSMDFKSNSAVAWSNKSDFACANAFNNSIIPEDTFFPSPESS
Vδ1 TCR on cynomolgus γδ T cells (cynomolgus monkey), sequence (chain, as listed by the source): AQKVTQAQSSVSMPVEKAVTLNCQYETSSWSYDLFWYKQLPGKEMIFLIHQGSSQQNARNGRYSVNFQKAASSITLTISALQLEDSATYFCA
T6 sequence (delta, as listed by the source limits assumed): as the sequence (chain, as listed by the source) above

B2: ADT1-4-1 (antibody, IgG1, V domains shown)
VH: EVQLQQSGPGLVKPSQTLSLTCAISGDSVSSKSAAWNWIRQSPSRGLEWLGRTYYRSKWSTDYAASVKSRITINPDTSKNQLSLQLNSVTPEDTAVYYCARTWVGYADVWGQGTLVTVSS
VL: DIQMTQSPPALSASVGDRVTITCRASQDINDWLAWYQHKPGKAPKLLIYDASSLESGVPLRFSGSGSGTEFTLTISSLQPDDFATYYCQQRYSTPIVTFGQGTRLEIK
notes: IgG1
- Kd [4]: 0.08 nM
- Kd [5]: 0.08 nM

B3: ADT1-4 (parental) (antibody, IgG1, V domains shown)
VH: QVQLQQSGPGLVKPSQTLSLTCAISGDSVSSKSAAWNWIRQSPSRGLEWLGRTYYRSKWSTDYAASVKSRITINPDTSKNQLSLQLNSVTPEDTAVYYCARTWSGYVDVWGQGTLVTVSS
VL: DIQMTQSPPALSASVGDRVTITCRASQDINDWLAWYQHKPGKAPKLLIYDASSLESGVPSRFSGSGSGTEFTLTISSLQPDDFATYYCQQSYSTPQVTFGQGTRLEIK
notes: IgG1; also called G04; 1245_P02_G04
- binding result [6]: no binding (tested: 100 nM)
- EC50 [7]: 108 nM
- Kd [8]: 149 nM
- Kd [9]: 115 nM
- EC50 [10]: 576 nM

B4: ADT1-4-8 (antibody, IgG1, V domains shown)
VH: EVQLQQSGPGLVKPSQTLSLTCAISGDSVSSKSAAWNWIRQSPSRGLEWLGRTYYRSKWSTDYAASVKSRITINPDTSKNQLSLQLNSVTPEDTAVYYCARSWVGYVDVWGQGTLVTVSS
VL: DIQMTQSPPALSASVGDRVTITCRASQDINDWLAWYQHKPGKAPKLLIYDASSLESGVPLRFSGSGSGTEFTLTISSLQPDDFATYYCQQKYSAPQVTFGQGTRLEIK
notes: IgG1
- Kd [4]: 0.541 nM
- Kd [11]: 15.1 nM

B5: ADT1-4-139 (antibody, IgG1, V domains shown)
VH: EVQLQQSGPGLVKPSQTLSLTCAISGDSVSSKSAAWNWIRQSPSRGLEWLGRTYYRSKWSTDYAASVKSRITINPDTSKNQLSLQLNSVTPEDTAVYYCARTWVGYVDYWGQGTLVTVSS
VL: DIQMTQSPPALSASVGDRVTITCRASQDINDWLAWYQHKPGKAPKLLIYDASSLESGVPLRFSGSGSGTEFTLTISSLQPDDFATYYCQQGYSTPQLTFGQGTRLEIK
notes: IgG1
- Heat Map (Cyno) value (ELISA signal) [12]: 57600

B7: ADT1-4-2/ADT3-5 (bispecific antibody)
heavy: EVQLQQSGPGLVKPSQTLSLTCAISGDSVSSKSAAWNWIRQSPSRGLEWLGRTYYRSKWSTDYAASVKSRITINPDTSKNQLSLQLNSVTPEDTAVYYCARTWVGYVDRWGQGTLVTVSSASTKGPSVFPLAPSSKSTSGGTAALGCLVKDYFPEPVTVSWNSGALTSGVHTFPAVLQSSGLYSLSSVVTVPSSSLGTQTYICNVNHKPSNTKVDKKVEPKSCDKTHTCPPCPAPELAGAPSVFLFPPKPKDTLMISRTPEVTCVVVDVSHEDPEVKFNWYVDGVEVHNAKTKPREEQYNSTYRVVSVLTVLHQDWLNGKEYKCKVSNKALPAPIEKTISKAKGQPREPQVYTLPPSRDELTKNQVSLTCLVKGFYPSDIAVEWESTYGPENNYKTTPPVLDSDGSFFLYSKLTVSYWRWYKGNVFSCSVMHEALHNHYTQKSLSLSPG
light: DIQMTQSPPALSASVGDRVTITCRASQDINDWLAWYQHKPGKAPKLLIYDASSLESGVPLRFSGSGSGTEFTLTISSLQPDDFATYYCQQKYSAPQVTFGQGTRLEIKRTVAAPSVFIFPPSDEQLKSGTASVVCLLNNFYPREAKVQWKVDNALQSGNSQESVTEQDSKDSTYSLSSTLTLSKADYEKHKVYACEVTHQGLSSPVTKSFNRGEC
notes: mAb2; also called ADT1-4-2xLEE1
- Kd [15]: 140 nM
- Kd [9]: 0.883 nM
- Kd [16]: 142 nM

Further lines, results first:

- Kd [1]: 1 nM
- EC50 (EGFR on HT-29 cells): 0.281 nM
- MFI (at saturation) [2]: ~0.495 MFI
- binding result [3]: no binding (tested: 500 nM)
- EC50 (read off the curve) (EGFR on A431 cells): ~8 nM
B1: D1.3xFS1-67 control (bispecific antibody, V domains shown)
VH: QVQLQESGPGLVRPSQTLSLTCTVSGSTFSGYGVNWVRQPPGRGLEWIGMIWGDGNTDYNSALKSRVTMLVDTSKNQFSLRLSSVTAADTAVYYCARERDYRLDYWGQGSLVTVSS
VL: DIQMTQSPSSLSASVGDRVTITCRASGNIHNYLAWYQQKPGKAPKLLIYYTTTLADGVPSRFSGSGSGTDYTFTISSLQPEDIATYYCQHFWSTPRTFGQGTKVEIKR
notes: Only one entry is named for the whole molecule; it may hold heavy and light chains together; also called D1.3 FS1-67

- binding result [13]: no binding (tested: 100 nM)
- EC50 (read off the curve), TCR downregulation, donor AD8170 [14]: 4 to 5 nM
- EC50 (read off the curve), TCR downregulation, donor AM945BA [14]: ~2 nM
- Kd [9]: 0.522 nM
- binding result (EGFR on A431 cells): no binding (tested: 500 nM)
B6: ADT1-4-2 (antibody, IgG1, V domains shown)
VH: EVQLQQSGPGLVKPSQTLSLTCAISGDSVSSKSAAWNWIRQSPSRGLEWLGRTYYRSKWSTDYAASVKSRITINPDTSKNQLSLQLNSVTPEDTAVYYCARTWVGYVDRWGQGTLVTVSS
VL: DIQMTQSPPALSASVGDRVTITCRASQDINDWLAWYQHKPGKAPKLLIYDASSLESGVPLRFSGSGSGTEFTLTISSLQPDDFATYYCQQKYSAPQVTFGQGTRLEIK
notes: IgG1
